In data set [1] the test system is A. nidulans α-1,2-mannosidase IC. Nature of the data set: Effect of EDTA, calcium and deoxymannojirimycin on enzyme activity. The format is biochemical, Aspergillus nidulans. The note with it: for effect of addition on enzyme activity: added to purified α-1,2-mannosidase IC. The method, then: (§1) FIG. 8: Biochemical characterization of purified A. nidulans α-1,2-mannosidase IB (A) and α-1,2-mannosidase IC (B) enzymes. Enzyme activity was assayed by digestion of the synthetic substrate Man-α1,2-Man-OCH3 at 37 °C for 3 hours. Released mannose was detected using a colorimetric glucose oxidase/horseradish peroxidase assay (see Materials and Methods) and measuring absorbance at […].
(§2) The α-mannosidase IB and IC expression vectors were introduced into the genome of A. nidulans strain T580 (ura-) by cotransformation and complementation with the pJR15 vector, which contained the selectable ura marker. It has been shown that when two plasmids are used simultaneously in the transformation of fungal protoplasts (cotransformation), as many as 60% of transformed protoplasts will integrate both of the plasmids into the genome (Wernars et al. 1987, Mol. Gen. Genet., 209: 71-77). Protoplasts were prepared according to the method of Fincham (1989, Microbiol. Rev., 53: 148-170), using Sigma Lysing Enzyme for cell wall digestion. Protoplasts of strain T580 (uridine auxotroph) were co-transformed with 1 μg of the selectable marker pJR15, which converts transformed cells to uridine prototrophy, and with 1 μg of either ANIBSEC or ANICSEC. Transformants were initially screened for integration of […] by selection on minimal media, and positive transformants were then transferred to individual complete media plates. Transformants were selected for prototrophy on uridine deficient minimal media and transferred to complete media plates. To confirm secretion of active recombinant α-1,2-mannosidase IB or IC into the culture media of putative transformants, specific activity assays were performed. After 60-65 hours of incubation, aliquots of culture media were assayed for α-1,2-mannosidase activity and compared to the non-transformed T580 strain. Total culture filtrate protein was precipitated and resuspended in assay buffer. Mannosidase assays were performed using the disaccharide Man-α-1,2-Man-OCH3 as a substrate in a coupled enzyme assay as described earlier (Scaman et al. 1996, Glycobiol., 6: 265-270), with some modifications. Digestion of the substrate was performed in a 30 μl final volume containing 10 mM sodium acetate/acetic acid buffer (pH 5.0) and 3 μl 100 mM disaccharide Man-α-1,2-Man-OCH3 incubated at 37° C. for 3 hours. Released mannose was detected by addition of 30 μl 1.25M Tris-HCl (pH7.6) and 240 μl of developing solution, containing glucose oxidase (55 U/ml), horseradish peroxidase (1 U/ml) and o-dianisidine dihydrochloride (70 μg/ml) followed by incubation at 37° C. for 3 hours. Absorbance measurements at 450 nm were used to determine final color change. A standard curve of free mannose concentrations was determined for comparison.

The subject of data set [2] is A. nidulans α-1,2-mannosidase IB. The description is as above. The format is biochemical, Aspergillus nidulans. The note with it: for effect of addition on enzyme activity: added to purified α-1,2-mannosidase IB. The method, then: as §1, §2
Data set [3] in a line: Digestion of Man9GlcNAc2, cleavage products by MALDI-TOF mass spectrometry. In kind it is biochemical. The note with it: for cleavage of Man9GlcNAc2 (substrate specificity): non-limiting conditions, about 100 ng enzyme, 10 pmol Man9GlcNAc2. The method, then:
FIG. 9: Partial digestion of Man9GlcNAc2 (M9) with A. nidulans α-1,2-mannosidase IB (A) and A. nidulans α-1,2-mannosidase IC (B) by MALDI-TOF mass spectrometry. Peaks represent parent molecules ionized with sodium (M+Na+). Several different digestion products are produced in each reaction, including Man8GlcNAc2 (M8), Man7GlcNAc2 (M7), Man6GlcNAc2 (M6) and Man5GlcNAc2 (M5).
The substrate specificity of the α-1,2-mannosidase IB and IC from A. nidulans was determined by analyzing the cleavage products of Man9GlcNAc2 by MALDI-TOF mass spectrometry. Approximately 100 ng of either α-1,2-mannosidase IB or IC protein was used to digest 10 pmol of Man9GlcNAc2 (Sigma) in a final volume of 10 μl. Digestion products were analyzed by matrix assisted laser desorption ionization time of flight mass spectrometry (MALDI-TOF-MS) using a Voyager biospectrometry workstation (Applied Biosystems, Foster City Calif.). Samples were mixed in a 1:1 ratio with the matrix (10 mg/ml 2,5-dihydroxybenzoic acid; 50% acetonitrile) and 1 μl was loaded onto a sample plate for analysis. […] Accelerating voltage was 20000V and the grid voltage was set at 94%. Data were analyzed using Data Explorer software (Applied Biosystems, Foster City Calif.). […] This supports the classification of both the α-1,2-mannosidase IB and IC in subgroup 2.
The rate at which various intermediates were produced during the digestion of Man9GlcNAc2 to Man5GlcNAc2 was determined by analyzing the cleavage products during limited time-course experiments (FIG. 9). […] This led to the accumulation of Man7GlcNAc2 and Man6GlcNAc2 intermediates during the progress of the digestion, which were eventually converted to Man5GlcNAc2.

A short description of data set [4]: α-1,2-mannosidase specific activity assay of secreted recombinant enzymes (coupled enzyme assay). In kind it is biochemical. The following applies: purified enzyme; for optimal pH for highest activity: FIG. 8; for specific activity: non-limiting amounts of Man-α-1,2-Man-OCH3, 1 U = 1 nmol mannose per hour. The method, then: as §1
as §2, with “Digestion of the substrate was performed in a 30 μl final volume containing 10 mM sodium acetate/acetic acid buffer (pH 5.0) and 3 μl 100 mM disaccharide Man-α-1,2-Man-OCH3 incubated at 37° C. for 3 hours.” left out, “comparison. […] Protein concentrations were determined by the Bradford method (Bradford 1976, Anal. Biochem., 72: 248-254) and comparison to a bovine serum albumin (BSA) standard curve. […]” for “comparison.”

[5] abbreviates: limited time-course experiments, FIG. 9.

For the molecule `O=C(O)CN(CCN(CC(=O)O)CC(=O)O)CC(=O)O` [EDTA], the “effect of addition on enzyme activity” value in data set [1] and in data set [2] was “significantly reduced enzyme activity” in each case.
Turning to `[Ca+2]` [calcium], the “effect of addition on EDTA-reduced enzyme activity” value is “restored” in data set [1] (added after EDTA, α-1,2-mannosidase IC) and “restored” in data set [2] (added after EDTA, α-1,2-mannosidase IB).
For the molecule `OC[C@H]1NC[C@@H](O)[C@@H](O)[C@@H]1O` [deoxymannojirimycin], the “effect of addition on enzyme activity” value in data set [1] and in data set [2] was “significant decrease in activity” in each case.

B1: α-1,2-mannosidase IB: Class I α-1,2-mannosidase from A. nidulans (mnsIB, SEQ ID NO: 6), expressed from vector ANIBSEC (protein)
chain: MRTLLALAAFAGFAAARVPATAITRPVMRSDSRADAVKEAFSHAWDGTTNTAFPHDELHPISNGTGDSRNHWGASAVDALSTAIMMRNATIVNQILDHIAAVDTSKTNAMVSLFETTIRTLAGMISGTDLLKGPAAGLVDDSRVDVLLEQSQNLAEVLKFAFDTPSGVPTNMINITSGGNDGATTNGLAVTGTLVLEWTRLSDLTGNDETARLSQRAEDTLLHPEPAQTEPFPGLIGSAVNIADGKLANGHISWNGGADSTTETLIKMTVTDPERFGLTRDRWVAAAESSINHLASHPSTRPDVTFLATTNEEHQLGLTSQHLTCFDGGSFLLGGTLLDRQDFVDFGLDLVAGCHETTNSTLTGIGPEQFSWDPNGVPDSQKELFERAGFTINSGQTILRPEVIESFTTAWRVTGDGTTLEWVWNAFTNINKTCRTATGFAGLENVNAANGGGRIDNQESFMFAEVLKTSFLTFAPEDDWQVQKGSGNTFVTNTEAHPFKVTTPQ
modifications: Aspergillus nidulans
For the molecule B1, the “rate of digestion of Man9GlcNAc2 to intermediates” value in data set [3] (setting [5]) was “rapidly degraded Man9GlcNAc2 to Man7GlcNAc2”. Besides, the “cleavage of Man9GlcNAc2 (substrate specificity)” value in data set [3] is “cleaved Man9GlcNAc2 completely and efficiently to a Man5GlcNAc2 structure”. In addition, in data set [4], the “optimal pH for highest activity” value is 5.0 and the specific activity worked out at 7.52 U/μg.

B2: α-1,2-mannosidase IC: Class I α-1,2-mannosidase from A. nidulans (mnsIC, SEQ ID NO: 18), expressed from vector ANICSEC (protein)
chain: MPRRWSSLISITAIFLVLFFLLHRNTDTPRAANRATNGPANGFARQQSICPSTPPQPPYNRTSTGGFNWGEIPVRYPVSDFIPLSTNSPATLPRIQRSSFPLQSSITKSRQAAVKGAFQRAWTSYTTHAWKADEVRPITAGSRNNFGGWGATLVDNLDTLLIMGLDEEFAAAVDALADIEFSPHSSPSSSQSTINIFETTIRYLGGLLAAYDLTGCRETRLLDKAIQLGEMIYTSFDTENRMPVPRWNLHKAGNGEPQRAAVQGVLAELASSSLEFTRLSQLTGDMRYFDAASRITDLLDSQAGHTRIPGLWPVSVNLQKGDLTRGSTFSFGGMADSAYEYLGKTYRLLGGVGKGPQYERLARNALDAGIRHLLFRPMTPDHADILLPGVAHATSSSVGLEPRTEHLACFVGGMYALAGKLFSNQTYLDTGRKLTDGCIWYYDNSPLGIMPEMFTVPACPSVAECPWDETRGGIYTYVRDGHYFLRPEAMESIFYMWRITGDEKYREAAWRMFTAIEAVTKTEFGNAAVRDVMVEEGNVKREDSMESFWMAETLKYLYLIFGETDLVSLDDWVFNTEAHPLRGAGS
modifications: Aspergillus nidulans
For B2, in data set [3] (setting [5]), the “rate of conversion of Man7GlcNAc2 and Man6GlcNAc2 intermediates to Man5GlcNAc2” value is reported as “more rapidly than the α-1,2-mannosidase IB enzyme”; the “rate of digestion of Man9GlcNAc2 to intermediates” value is on record as “rapidly degraded Man9GlcNAc2 to Man7GlcNAc2”. Moreover, the “cleavage of Man9GlcNAc2 (substrate specificity)” value in data set [3] was “cleaved Man9GlcNAc2 completely and efficiently to a Man5GlcNAc2 structure”. Besides, in data set [4], the “optimal pH for highest activity” value is listed as 5.0 and the specific activity was determined as 4.56 U/µg.
